Read-outs that look alike come from different tables or passages of the source.
B1: AGX-A05 (antibody, V domains shown)
VH: EVQVQQSGPELVKPGASVKMSCKASGYTFTSYVMHWVKQKPGQGLEWIGYINPNNDNINYNEKFKGKASLTSDKSSNTVYMELSSLTSEDSAVYYCAGYGNSGANWGQGTLVTVSA
VL: DIQMTQSPASLSASVGETVTITCRTSKNIFNFLAWYHQKQGRSPRLLVSHTKTLAAGVPSRFSGSGSGTQFSLKINSLQPEDFGIYYCQHHYGTPWTFGGGTKLEIK
notes: Monoclonal murine antibody; also called murine monoclonal antibody AGX-A05
B2: AGX-A03 (antibody, V domains shown)
VH: QIQLVQSGPELKKPGETVKISCKASGYSFRDYGMNWVKQAPGRTFKWMGWINTYTGAPVYAADFKGRFAFSLDTSASAAFLQINNLKNEDTATYFCARWVSYGNNRNWFFDFWGAGTTVTVSS
VL: DVLMTQTPLSLPVRLGDQASISCRSSQTLVHSNGNTYLEWYLQKPGQSPKLLIYKVSNRLSGVPDRFSGSGSGTDFTLKISRVETEDLGVYYCFQGSHGPWTFGGGTKLEIK
notes: Monoclonal murine antibody; also called Antibody AGX-A03; murine monoclonal antibody AGX-A03
B3: AGX-A08 (antibody, V domains shown)
VH: EVQLQQSGPELVKPGASVKLSCKASGYTVTSYVMHWVKQKPGQGLEWIGYINPYSDVTNCNEKFKGKATLTSDKTSSTAYMELSSLTSEDSAVYYCSSYGGGFAYWGQGTLVTVSA
VL: DIQMTQSPASLSASVGEPVTITCRASKNIYTYLAWYHQKQGKSPQFLVYNARTLAGGVPSRLSGSGSVTQFSLNINTLHREDLGTYFCQHHYDTPYTFGGGTNLEIK
notes: Monoclonal murine antibody; also called murine monoclonal antibody AGX-A08
B4: AGX-A09 (antibody, V domains shown)
VH: EVQLQQSGPELVKPGASVKMSCKASGYTFSSYVMHWVKQKPGQGLEWIGYINPYSDVTNYNEKFKGKATLTSDRSSNTAYMELSSLTSEDSAVYYCARNYFDWGRGTLVTVSA
VL: DIQMTQSPASLSASVGETVTITCRASKNVYSYLAWFQQKQGKSPQLLVYNAKTLAEGVPSRFSGGGSGTQFSLKINSLQPADFGSYYCQHHYNIPFTFGSGTKLEIK
notes: Monoclonal murine antibody; also called murine monoclonal antibody AGX-A09
B5: AGX-A07 (antibody, V domains shown)
VH: QIQLVQSGPELKKPGETVKISCKASGYTFTNYGVKWVKQAPGKDLKWMGWINTYTGNPIYAADFKGRFAFSLETSASTAFLQINNLKNEDTATYFCVRFQYGDYRYFDVWGAGTTVTVSS
VL: QIILSQSPAILSASPGEKVTMTCRANSGISFINWYQQKPGSSPKPWIYGTANLASGVPARFGGSGSGTSYSLTISRVEAEDAATYYCQQWSSNPLTFGAGTKLELR
notes: also called murine monoclonal antibody AGX-A07
B6: AGX-A04 (antibody, V domains shown)
VH: EVQLQQSGPELVKPGASVKISCKTSGYTFTDYTMHWVRQSHGKSLEWIGSFNPNNGGLTNYNQKFKGKATLTVDKSSSTVYMDLRSLTSEDSAVYYCTRIRATGFDSWGQGTTLTVSS
VL: DIVMSQSPSSLAVSAGEKVTMSCKSSQSLLNSRTRKNYLAWYQQKPGQSPKLLIYWASTRESGVPDRFTGSGSGTDFTLTISNVQAEDLTVYYCKQSYNPPWTFGGGTKLEIK
notes: Monoclonal murine antibody; also called murine monoclonal antibody AGX-A04

Tests used:
[1] = in vivo; cited from earlier work
HUVEC = assay: Cell killing assay in HUVEC (PrestoBlue viability, 5 days); format: cell-based; conditions: Homo sapiens
Description: To assess the effect of anti-TM4SF1 ADCs conjugated to carfilzomib, cytotoxicity of treated cell lines were assessed in cultured endothelial cell (HUVEC) and tumor cells (MiaPaca2 and SKOV3) in vitro. HUVEC was treated with free carfilzomib, CFZ-ND-ADC DAR 2.5, and CFZ-ND-ADC DAR 6.7, and maytansine-ND-ADC (DAR 2.0) and cytotoxicity was assessed (FIG. 2A). Cytotoxicity of HUVEC correlates with CFZ DAR. […] Cell killing assay. […] RPMI/10% FBS for MiaPaca2 and SKOV3). Cells are cultured for overnight at 37° C. degrees. On day 2, exemplary ADCs containing CFZ are serially diluted 5-fold in the culture media, and 100 µL of the diluted compounds is transferred to the cell plates. The final top concentration of the test exemplary ADCs in the cell plates is 333.335 nM and the lowest concentration is 0.0043 nM. […] 10 µl PrestoBlue HS cell viability reagent (ThermoFisher cat# P50201) is added to each well and incubated for 1 hour in CO2 incubator before reading the […] at 570 nm/600 nm excitation and emission through a plate reader (Varioskan™ LUX multimode microplate reader). To assess the effect of various anti-TM4SF1 ADCs conjugated to carfilzomib, cytotoxicity of treated cell lines were assessed. HUVEC was treated with free carfilzomib, and six ADCs (Table 1A) conjugated with carfilzomib (CFZ) with various linkers and/or DAR values, and cytotoxicity was assessed (Table 1B).

[2] = target: T1, Transmembrane-4 L six family member-1 (TM4SF1) (human, UniProt P30408 1-202, limits assumed); assay: screen, method not described
T1 construct: also called human TM4SF1; hTM4SF1
T1 sequence: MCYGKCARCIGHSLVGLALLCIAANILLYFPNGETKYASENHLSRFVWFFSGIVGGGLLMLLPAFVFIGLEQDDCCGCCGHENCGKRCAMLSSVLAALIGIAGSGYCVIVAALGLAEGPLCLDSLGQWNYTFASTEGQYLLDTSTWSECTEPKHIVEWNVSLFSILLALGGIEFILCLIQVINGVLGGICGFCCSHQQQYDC

| Molecule | binding result [2] | further results |
| --- | --- | --- |
| COc1ccc(/C=C\c2cc(OC)c(OC)c(OC)c2)cc1OP(=O)(O)O [CA4P] |  | patients who experienced heart attacks while being treated [1]: seven |
| CC(C)C[C@H](NC(=O)[C@H](CCc1ccccc1)NC(=O)CN1CCOCC1)C(=O)N[C@@H](Cc1ccccc1)C(=O)N[C@@H](CC(C)C)C(=O)[C@@]1(C)CO1 [CFZ, (S)-4-Methyl-N—((S)-1-(((S)-4-methyl-1-((R)-2-methyloxiran-2-yl)-1-oxopentan-2-yl)amino)-1-oxo-3-phenylpropan-2-yl)-2-((S)-2-(2-morpholinoacetamido)-4-phenylbutanamido)-pentanamide] |  | EC50 (HUVEC; FIG. 2A, read-out: EC50, cytotoxicity of HUVEC): 11.9 nM; EC50 (HUVEC; read-out: killing in vitro (EC50 nM) HUVEC): 11.9 nM |
| B1 | binds |  |
| B2 | binds |  |
| B3 | binds |  |
| B4 | binds |  |
| B5 | binds |  |
| B6 | binds |  |

From patent US20230293713A1, “ANTI-TM4SF1 ANTIBODY DRUG CONJUGATES AND METHODS OF USING SAME” (priority 2020, published 2023)
